From patent publication US20120244132A1 (published 2012) come the findings set out here.

The test concerns the target T1, latent membrane protein 2 (LMP-2) from the Epstein Barr Virus (EBV) peptide on HLA-A*02:01 (human).
T1 peptide: CLGGLLTMV
In words: multimer staining.

B1: EBVa14-p2A-Vb7.7 (LMP-2-specific TCR of SEQ ID No. 8) (TCR, V domains shown)
Valpha: AQKITQTQPGMFVQEKEAVTLDCTYDTSDQSYGLFWYKQPSSGEMIFLIYQGSYDEQNATEGRYSLNFQKARKSANLVISASQLGDSAMYFCAMREGSGSARQLTFGSGTQLTVLP
Vbeta: GAGVSQSPRYKVTKRGQDVTLRCDPISSHATLYWYQQALGQGPEFLTYFNYEAQPDKSGLPSDRFSAERPEGSISTLTIQRTEQRDSAMYRCASSLGPAGIQETQYFGPGTRLLVL
Take B1: the binding result is “recognises”.
